Positions count from the first letter of the chain named. Numbers in names are those of the source.
B1: transactivation domain 1 (TA1) of the p65 subunit of NF-κB, residues 521–551, L523Y (peptide, UniProt Q04206 521-551, looked up)
chain: PGYPNGLLSGDEDFSSIADMDFSALLSQISS
B2: F542A mutant of p65TA1 (peptide, UniProt Q04206 521-551, looked up)
chain: B1 chain with F22A
B3: L545A mutant of p65TA1 (peptide, UniProt Q04206 521-551, looked up)
chain: B1 chain with L25A
B4: L546A mutant of p65TA1 (peptide, UniProt Q04206 521-551, looked up)
chain: B1 chain with L26A

Key:
Test in all cases: ITC
[1] = molecular target: KIX domain of CREB-binding protein (CBP), residues 586–672 (UniProt P45481 586-672)
[2] = molecular target: F612A/D622A/R624A/K667E quadruple CBPKIX mutant (UniProt P45481 586-672, F612A | D622A | R624A | K667E)
[3] = molecular target: Y650A/A654Q/Y658V triple CBPKIX mutant (UniProt P45481 586-672, Y650A | A654Q | Y658V)
Y650A/A654Q/Y658V triple CBPKIX mutant, sequence (P45481 586-672 Y650A/A654Q/Y658V): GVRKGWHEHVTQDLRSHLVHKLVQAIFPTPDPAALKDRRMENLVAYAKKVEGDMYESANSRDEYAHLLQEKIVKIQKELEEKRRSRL

KIX domain of CREB-binding protein (CBP), residues 586–672, sequence (P45481 586-672): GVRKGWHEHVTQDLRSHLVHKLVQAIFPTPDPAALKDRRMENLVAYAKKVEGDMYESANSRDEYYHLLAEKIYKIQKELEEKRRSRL
F612A/D622A/R624A/K667E quadruple CBPKIX mutant, sequence (P45481 586-672 F612A/D622A/R624A/K667E): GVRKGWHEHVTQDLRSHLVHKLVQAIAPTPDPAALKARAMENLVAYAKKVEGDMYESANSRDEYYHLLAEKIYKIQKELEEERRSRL

| Binder | Kd [1] [µM] | fold decrease in affinity against wild-type CBPKIX [2] [fold] | Kd [3] [µM] | fold decrease in affinity against wild-type p65TA1 [1] [fold] |
| --- | --- | --- | --- | --- |
| B1 | 15 ± 3 | ≥ 100 | 13 ± 2 |  |
| B2 |  |  |  | ≥ 100 |
| B3 |  |  |  | ~1.5 |
| B4 |  |  |  | ~1.5 |

Source: PMC5435986 (Nucleic Acids Research, 2017)
